Source: US20230312702A1 (KINDRED BIOSCIENCES, published 2023)
“And” between values parts separate entries of the source, which are not always exact repeats. Identical values can stand only once.

What was measured:
[1] = target: equine IL31 fused to human Fc (equine; human); test: biolayer interferometry, biotinylated equine IL31 on the sensor, preliminary; biolayer interferometry, biotinylated equine IL31 on the sensor, preliminary; upper end of the range
GST_(A127-Q159) = target: T1, GST_(A127-Q159); test: immunoblot of GST-canine IL31 fusions expressed in E. coli, membrane probed with chimeric M14; anti-GST blot in Fig. 5B
T1 construct: also called 31.1KDa
T1 GST fusion protein: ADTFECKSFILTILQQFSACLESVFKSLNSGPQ
Text: (§1) To identify the canine IL31 epitope recognized by M14, multiple GST canine IL31 fragment fusion molecules were generated and proteins were expressed intracellularly in E. coli. After the GST fusion proteins were transferred to a membrane, chimeric M14 was used to probe the membrane. A positive signal resulted when the IL31 fragment contained the epitope.

GST_(S98-S144) = target: T2, GST_(S98-S144); test: as above
T2 construct: also called 34.5KDa
T2 GST fusion protein: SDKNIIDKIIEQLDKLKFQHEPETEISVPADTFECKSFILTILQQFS
Text: as §1

[2] = target: T3, Canine IL31 with C-terminal polyHis tag (canine, biotinylated at primary amine groups (NHS-LC-Biotin) or at glycan groups (Biotin-LC-Hydrazide)); test: biolayer interferometry (Octet), canine IL31 (glycan-conjugated-biotin) on streptavidin tips, 100 nM antibody
T3 construct: the protein was collected from the supernatant of 293 or CHO-S cells; also called biotinylated canine IL31; canine IL31 (amine-conjugated-biotin); not shown: C-terminal poly-His tag
T3 chain: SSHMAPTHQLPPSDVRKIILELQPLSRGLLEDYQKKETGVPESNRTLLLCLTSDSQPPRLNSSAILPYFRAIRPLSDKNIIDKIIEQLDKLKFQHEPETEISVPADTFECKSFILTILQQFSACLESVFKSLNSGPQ
Protocol: (§2) The binding analysis was performed using a biosensor Octet as follows. Briefly, canine IL31 was biotinylated at primary amine groups using EZ-Link™ NHS-LC-Biotin (Thermo Scientific, Catalog No. 21336) or at glycan groups using EZ-Link™ Biotin-LC-Hydrazide (ThermoFisher Scientific, Catalog No. 21340) according to the manufacturer's instructions. The free unreacted biotin was removed from biotinylated IL31 by extensive dialysis. Biotinylated canine IL31 was captured on streptavidin sensor tips. The association of four different concentrations (400, 200, 66.6, and 33 nM) of chimeric and caninized M14 antibody and human and canine IL31 (amine-conjugated-biotin) and the association of 100 nM of caninized M14 antibody and canine IL31 (glycan-conjugated-biotin) was monitored for ninety seconds. Dissociation was monitored for 600 seconds. A buffer only blank curve was subtracted to correct for any drift. The data were fit to a 2:1 binding model using ForteBio™ data analysis software to determine the kₒₙ, koff, and the Kd. The buffer for dilutions and all binding steps was: 20 mM phosphate, 150 mM NaCl, pH 7.2.
(§3) Canine IL31 with C-terminal polyHis tag was expressed and purified from CHO-S cells. Human IL31 was obtained from Sino Biological and Streptavidin biosensors was obtained from ForteBio (Cat. #18-509).

[3] = target: T3, Canine IL31 with C-terminal polyHis tag; test: biolayer interferometry (Octet), canine IL31 (amine-conjugated-biotin) on streptavidin tips, 2:1 fit
Protocol: as §2, §3

[4] = target: canine FcRn with a poly-His tag and canine B2M heterodimer complex (canine); test: SPR (Biacore T200) at pH 6.0, biotinylated FcRn/B2M immobilised, Fc as analyte
Sequence of canine FcRn with a poly-His tag and canine B2M heterodimer complex (canine) (chain, as listed by the source limits assumed, form in doubt, chain 1 of 2): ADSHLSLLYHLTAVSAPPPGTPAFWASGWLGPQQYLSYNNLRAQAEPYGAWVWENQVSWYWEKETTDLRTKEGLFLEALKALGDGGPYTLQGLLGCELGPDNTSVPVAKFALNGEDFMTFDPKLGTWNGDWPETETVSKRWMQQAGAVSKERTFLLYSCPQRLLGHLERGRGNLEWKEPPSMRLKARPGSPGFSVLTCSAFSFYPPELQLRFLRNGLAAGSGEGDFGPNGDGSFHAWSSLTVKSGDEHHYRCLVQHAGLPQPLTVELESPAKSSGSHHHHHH
Sequence of canine FcRn with a poly-His tag and canine B2M heterodimer complex (canine) (b2m, as listed by the source limits assumed, form in doubt, chain 2 of 2): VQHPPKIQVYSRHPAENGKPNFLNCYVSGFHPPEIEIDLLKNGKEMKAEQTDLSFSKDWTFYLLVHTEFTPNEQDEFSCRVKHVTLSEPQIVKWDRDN

Sequence of equine IL31 fused to human Fc (equine; human) (chain, as listed by the source limits assumed, form in doubt): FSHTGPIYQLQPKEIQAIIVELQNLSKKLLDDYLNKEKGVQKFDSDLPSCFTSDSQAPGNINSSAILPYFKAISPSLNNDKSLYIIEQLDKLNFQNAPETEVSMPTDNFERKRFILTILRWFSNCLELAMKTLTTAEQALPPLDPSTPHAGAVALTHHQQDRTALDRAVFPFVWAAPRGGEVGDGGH

B1: monoclonal antibody M14 (mouse antibody clone M14) (antibody, V domains shown)
VH: EVQLQESGPSLVKPSQTLSLTCSVTGDSITSGYWNWIRKFPGNKLEYMGYISYSGITDYNPSLKSRISITRDTSKNQYYLQLNSVTTEDTATYYCARYGNYGYAMDYWGQGTSVTVSS
VL: DIVLTQSPASLAVSLGQRATISCRASESVDTYGNSFMHWYQQKSGQSPKLLIYRASNLESGIPARFGGSGSRTDFTLTIDPVEADDVATYYCQQSYEDPWTFGGGTKLEIK
Kd [1]: < 50 nM

B2: chimeric M14 (murine M14 VH and VL fused to canine IgG-B constant heavy chain and canine constant light chain) (antibody, V domains shown)
VH: EVQLQESGPSLVKPSQTLSLTCSVTGDSITSGYWNWIRKFPGNKLEYMGYISYSGITDYNPSLKSRISITRDTSKNQYYLQLNSVTTEDTATYYCARYGNYGYAMDYWGQGTSVTVSS
VL: DIVLTQSPASLAVSLGQRATISCRASESVDTYGNSFMHWYQQKSGQSPKLLIYRASNLESGIPARFGGSGSRTDFTLTIDPVEADDVATYYCQQSYEDPWTFGGGTKLEIKR
notes: expressed in CHO cells, Protein A purified; also called chimeric M14 antibody
binding result (GST_(A127-Q159)): no binding
binding result (GST_(S98-S144)): no binding

B3: caninized M14 IgG-B (antibody, V domains shown)
VH: EVQLVESGPSLVKPGGSLRLTCSVTGDSITSGYWNWIRKFPGNKLEYMGYISYSGITDYNPSLKSRITISRDTSKNQYYLQLNSVTTEDTATYYCARYGNYGYAMDYWGQGTLVTVSS
VL: DIVMTQSPASLSVSLGQRATISCRASESVDTYGNSFMHWYQQKPGQSPKLLIYRASNLESGIPARFGGSGSGTDFTLTIDPVQADDVATYYCQQSYEDPWTFGGGTKLEIKR
notes: Caninized M14 on canine IgG-B with canine light chain constant region; also called caninized M14 antibody
Kd [2]: < 0.001 nM
koff [2]: < 1e-07 s⁻¹
Kd [3]: < 0.01 nM

B4: wild-type canine IgG-B Fc polypeptide (protein, not shown: small tags and cut ends)
chain: PAPEMLGGPSVFIFPPKPKDTLLIARTPEVTCVVVDLDPEDPEVQISWFVDGKQMQTAKTQPREEQFNGTYRVVSVLPIGHQDWLKGKQFTCKVNNKALPSPIERTISKARGQAHQPSVYVLPPSREELSKNTVSLTCLIKDFFPPDIDVEWQSNGQQEPESKYRTTPPQLDEDGSYFLYSKLSVDKSRWQRGDTFICAVMHEALHNHYTQESLSHSPGK
koff [4]: 0.122 s⁻¹

B5: variant canine IgG-B Fc polypeptide L(23)F (protein, not shown: small tags and cut ends)
chain: PAPEMLGGPSVFIFPPKPKDTLFIARTPEVTCVVVDLDPEDPEVQISWFVDGKQMQTAKTQPREEQFNGTYRVVSVLPIGHQDWLKGKQFTCKVNNKALPSPIERTISKARGQAHQPSVYVLPPSREELSKNTVSLTCLIKDFFPPDIDVEWQSNGQQEPESKYRTTPPQLDEDGSYFLYSKLSVDKSRWQRGDTFICAVMHEALHNHYTQESLSHSPGK
koff [4]: 0.0631 s⁻¹ and 0.0847 s⁻¹

B6: variant canine IgG-B Fc polypeptide L(23)M (protein, not shown: small tags and cut ends)
chain: PAPEMLGGPSVFIFPPKPKDTLMIARTPEVTCVVVDLDPEDPEVQISWFVDGKQMQTAKTQPREEQFNGTYRVVSVLPIGHQDWLKGKQFTCKVNNKALPSPIERTISKARGQAHQPSVYVLPPSREELSKNTVSLTCLIKDFFPPDIDVEWQSNGQQEPESKYRTTPPQLDEDGSYFLYSKLSVDKSRWQRGDTFICAVMHEALHNHYTQESLSHSPGK
koff [4]: 0.126 s⁻¹

B7: variant canine IgG-B polypeptide L(23)S (protein, not shown: small tags and cut ends)
chain: PAPEMLGGPSVFIFPPKPKDTLSIARTPEVTCVVVDLDPEDPEVQISWFVDGKQMQTAKTQPREEQFNGTYRVVSVLPIGHQDWLKGKQFTCKVNNKALPSPIERTISKARGQAHQPSVYVLPPSREELSKNTVSLTCLIKDFFPPDIDVEWQSNGQQEPESKYRTTPPQLDEDGSYFLYSKLSVDKSRWQRGDTFICAVMHEALHNHYTQESLSHSPGK
koff [4]: 0.241 s⁻¹

B8: variant canine IgG-B Fc polypeptide L(23)Y (protein, not shown: small tags and cut ends)
chain: PAPEMLGGPSVFIFPPKPKDTLYIARTPEVTCVVVDLDPEDPEVQISWFVDGKQMQTAKTQPREEQFNGTYRVVSVLPIGHQDWLKGKQFTCKVNNKALPSPIERTISKARGQAHQPSVYVLPPSREELSKNTVSLTCLIKDFFPPDIDVEWQSNGQQEPESKYRTTPPQLDEDGSYFLYSKLSVDKSRWQRGDTFICAVMHEALHNHYTQESLSHSPGK
koff [4]: 0.0138 s⁻¹
